From US20090297503A1 (Chugai, published 2009)

Experiments:
Factor VIII heavy chain [1] = molecular target: T1, Factor VIII heavy chain (human, UniProt P00451 20-1667, limits assumed); test: ELISA: Factor VIII heavy chain (50 nM) coated on microtiter wells, biotinylated moAb216 added, detected with peroxidase-conjugated streptavidin, absorbance at 492 nm
T1 construct: only the heavy chain part stood in the assay; also called HCh
Procedure: (§1) Microtiter wells were coated with Factor VIII or its subunit (50 nM) in 20 mM Tris, and 0.15 M NaCl, pH 7.4, overnight at 4° C. The wells were washed with PBS containing 0.01% Tween 20 and were blocked with PBS containing 5% HSA for two hours at 37° C. The indicated concentrations of biotinylated-moAb216 were then added in 20 mM HEPES, 0.1 M NaCl, 5 mM CaCl₂, and 0.01% Tween 20, pH 7.2 (HBS-buffer) containing 1% HSA for two hours at 37° C. Bound IgG was quantified by the addition of peroxidase-conjugated streptavidin and O-phenylenediamine dihydrochloride substrate. Reactions were stopped by the addition of 2 M H₂SO₄, and absorbance was measured at 492 nm. The amount of nonspecific binding of anti-mouse peroxidase-conjugated IgG in the absence of moAb216 was <5% of the total signal. Specific binding was recorded after subtracting the nonspecific binding.

[2] = molecular target: T2, recombinant human blood coagulation Factor VIII (Kogenate FS) (human, UniProt P00451 20-2351); test: cell-based or functional assay
[3] = molecular target: T2, recombinant human blood coagulation …; test: SPR (BIAcore X), moAb216 coupled to CM5 chip, Factor VIII in flow, 37 C; calculated as kdiss/kasso
Procedure: (§2) The kinetics of moAb216 interaction with Factor VIII was determined by SPR-based assay using a BIAcore X instrument (Biacore AB, Uppsala, Sweden) as previously reported. moAb216 was covalently coupled to the surface of CM5 chip at a coupling density of up to 5 ng/mm². Binding (association) of the ligand was monitored in the running buffer (10 mM HEPES pH 7.4, 0.1 M NaCl, 1 mM CaCl₂, 0.005% polysorbate 20) for two minutes at a flow rate 20 μl/min. The dissociation of bound ligand was recorded over a two-minute period by replacing the ligand-containing buffer with buffer only. The level of nonspecific binding as a result of ligand binding to the uncoated chip was subtracted from the signal. Reactions were performed at 37° C. The rate constants for association (kₐₛₛₒ) and dissociation (kdiss) were determined by nonlinear regression analysis using the evaluation software provided by Biacore AB. The dissociation constant (Kd) was calculated as kdiss/kₐₛₛₒ.
(§3) Reactions were performed as described under “Materials and Methods”. Parameter values were calculated by nonlinear regression analysis using the evaluation software provided by Biacore AB. ^{#}Values were calculated as kdiss/kₐₛₛₒ. *not determined

Factor VIII heavy chain [4] = molecular target: T1, Factor VIII heavy chain; test: SPR (BIAcore X), moAb216 coupled to CM5 chip, heavy chain in flow, 37 C; calculated as kdiss/kasso
Procedure: as §2, §3

Factor VIII A2 subunit [5] = molecular target: T3, Factor VIII A2 subunit (human, UniProt P00451 392-759); test: SPR (BIAcore X), moAb216 coupled to CM5 chip, A2 in flow, 37 C; calculated as kdiss/kasso
T3 construct: only the A2 subunit stood in the assay; also called A2 domain
T3 sequence: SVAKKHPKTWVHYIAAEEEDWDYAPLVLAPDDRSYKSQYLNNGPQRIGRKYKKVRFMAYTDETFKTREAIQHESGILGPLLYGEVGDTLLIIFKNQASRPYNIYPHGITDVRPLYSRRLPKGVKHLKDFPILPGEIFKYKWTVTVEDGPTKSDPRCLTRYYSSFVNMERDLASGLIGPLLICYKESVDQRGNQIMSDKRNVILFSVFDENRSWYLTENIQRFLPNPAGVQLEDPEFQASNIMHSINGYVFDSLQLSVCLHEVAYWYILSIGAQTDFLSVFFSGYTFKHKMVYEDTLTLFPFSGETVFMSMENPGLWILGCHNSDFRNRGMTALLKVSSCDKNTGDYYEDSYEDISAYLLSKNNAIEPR
Procedure: as §2, §3

Factor VIII A1 subunit = molecular target: T4, Factor VIII A1 subunit (human, UniProt P00451 20-391); test: ELISA: Factor VIII A1 subunit (50 nM) coated on microtiter wells, biotinylated moAb216 added, detected with peroxidase-conjugated streptavidin, absorbance at 492 nm
T4 construct: only the A1 subunit stood in the assay; also called A1 domain
T4 sequence: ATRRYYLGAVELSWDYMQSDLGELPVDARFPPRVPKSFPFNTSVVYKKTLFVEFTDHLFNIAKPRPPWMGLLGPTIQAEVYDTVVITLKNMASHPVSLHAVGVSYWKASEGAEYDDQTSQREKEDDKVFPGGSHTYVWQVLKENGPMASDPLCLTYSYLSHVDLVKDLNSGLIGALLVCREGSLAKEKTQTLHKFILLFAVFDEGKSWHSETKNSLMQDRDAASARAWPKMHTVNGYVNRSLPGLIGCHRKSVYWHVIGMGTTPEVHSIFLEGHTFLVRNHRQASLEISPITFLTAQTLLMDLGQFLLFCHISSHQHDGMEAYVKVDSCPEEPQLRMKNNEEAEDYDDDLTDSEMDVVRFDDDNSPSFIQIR
Procedure: as §1

Factor VIII light chain = molecular target: T5, Factor VIII light chain (human, UniProt P00451 1668-2351); test: ELISA: Factor VIII light chain (50 nM) coated on microtiter wells, biotinylated moAb216 added, detected with peroxidase-conjugated streptavidin, absorbance at 492 nm
T5 construct: only the light chain part stood in the assay; also called LCh
T5 sequence: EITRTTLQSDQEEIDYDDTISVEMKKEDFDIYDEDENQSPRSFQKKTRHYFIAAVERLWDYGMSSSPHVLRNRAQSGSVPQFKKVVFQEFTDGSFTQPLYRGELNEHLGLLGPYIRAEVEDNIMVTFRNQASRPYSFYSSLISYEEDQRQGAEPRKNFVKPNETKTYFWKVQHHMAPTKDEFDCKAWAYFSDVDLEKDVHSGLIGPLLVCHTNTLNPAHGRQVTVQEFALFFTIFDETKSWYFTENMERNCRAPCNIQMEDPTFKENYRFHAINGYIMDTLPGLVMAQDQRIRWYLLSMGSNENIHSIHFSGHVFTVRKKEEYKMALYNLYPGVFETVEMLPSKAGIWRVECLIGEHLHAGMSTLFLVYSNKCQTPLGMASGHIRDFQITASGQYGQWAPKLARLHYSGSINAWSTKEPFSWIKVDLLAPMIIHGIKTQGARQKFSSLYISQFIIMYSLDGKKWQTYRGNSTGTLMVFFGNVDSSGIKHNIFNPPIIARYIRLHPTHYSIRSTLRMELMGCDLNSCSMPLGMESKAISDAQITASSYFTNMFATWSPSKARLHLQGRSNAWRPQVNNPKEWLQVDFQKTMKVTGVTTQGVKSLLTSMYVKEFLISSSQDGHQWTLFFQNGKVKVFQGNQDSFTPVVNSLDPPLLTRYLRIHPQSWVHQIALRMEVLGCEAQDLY
Procedure: as §1

[6] = molecular target: T2, recombinant human blood coagulation …; test: ELISA: Factor VIII (50 nM) coated on microtiter wells, biotinylated moAb216 added, detected with peroxidase-conjugated streptavidin, absorbance at 492 nm
Procedure: as §1

Factor VIII A2 subunit [7] = molecular target: T3, Factor VIII A2 subunit; test: SPR (BIAcore X), moAb216 coupled to CM5 chip, A2 in flow, 37 C
Procedure: as §2, §3

[8] = molecular target: T2, recombinant human blood coagulation …; test: SPR (BIAcore X), moAb216 coupled to CM5 chip, Factor VIII in flow, 37 C
Procedure: as §2, §3

Factor VIII heavy chain [9] = molecular target: T1, Factor VIII heavy chain; test: SPR (BIAcore X), moAb216 coupled to CM5 chip, heavy chain in flow, 37 C
Procedure: as §2, §3

- EC50 (read off the curve) (Factor VIII heavy chain [1]): ~0.09 µg/mL
- percentage of Factor Xa cleavage at Arg372 (A2/A1-A2 ratio, densitometry) [2]: ≤ 2 times
- rate of thrombin cleavage at Arg372 (A2 product/A1-A2 substrate ratio, densitometry of Western blot) [2]: ~2 times
- Kd [3]: 1.1 nM
- Kd (Factor VIII heavy chain [4]): 3 nM
- Kd (Factor VIII A2 subunit [5]): 0.8 nM
- binding result (Factor VIII A1 subunit): no binding (tested: 1.25 µg/ml)
- binding result (Factor VIII light chain): no binding (tested: 1.25 µg/ml)
- EC50 (read off the curve) [6]: ~0.08 µg/mL
- koff (Factor VIII A2 subunit [7]): 0.0002 s⁻¹
- kon (Factor VIII A2 subunit [7]): 238000 M⁻¹ s⁻¹
- koff [8]: 0.001 s⁻¹
- kon [8]: 930000 M⁻¹ s⁻¹
- koff (Factor VIII heavy chain [9]): 0.0009 s⁻¹
- kon (Factor VIII heavy chain [9]): 294000 M⁻¹ s⁻¹
B1: anti-Factor VIII monoclonal antibody moAb216 (antibody, V domains shown)
VH: EVRLVESGGGLVKPGGSLKLSCAASEFTFSSYSMSWVRQTPEKRLEWVASINSGGRTFYPDSVKGRFTISRDNARNILVLQMSSLRSEDTAMYYCARVIYYDYGAYALDYWGQGTSLTVSS
VL: EIVLTQSPALMAAYPGEKVTITCSVSSSISSSNLHWYQQKSETSPKLWIYGTSNLASGVPVRFSGSGSGTSYSLTISSMEAEDAATYYCQQWNIYPLTFGAGTKLELK
notes: It was biotinylated for the ELISAs and coupled covalently to a CM5 chip for SPR; also called moAb216 IgG; biotinylated moAb216
